The text below walks through data of US20240377408A1.

Experiment [1] addresses biotinylated peptide M64-P1-P2-ΔK-(PEG9)(PEG9)-K(Biotin) with P1 = V. The experiment in a line: BLI, biotinylated peptide on streptavidin tips, binder in solution. (Biolayer interferometry detects binding as a change in optical thickness at a sensor tip.)
Experiment [2] has as its target biotinylated peptide M64-P1-P2-ΔK-(PEG9)(PEG9)-K(Biotin) with P1 = T. The description is as above.

B1: S279_0004 (designed binder, not shown: small tags and cut ends; large carriers)
chain: EWGYASHNGPDHWHELFPNAKGENQSPIELHTKDIRHDPSLQPWSVSYDGGSAKTILNNGKTLGVVFDDTYDRSMLRGGPLPGPYRLREFHLHWGSSDDHGSEHTVDGVKYAAELHLLHWNPKYNTFKEALKQRDGLAVIGIFLKIGHENGEFQIFLDALDKIKTKGKEAPFTKFDPSSLFPASRDYWTYQGSMTIPPLMEAVVWLLLKEPMTVSSDQMAKLRSLLSSAENEPPVPLVSNWRPPQPINNRVVRASFK
Regarding B1, the Kd – broadly, the constant that tells how readily two partners part at equilibrium – in experiment [1] is less than 350 nM.

B2: Synthetic binder, S279_0004 (designed binder)
chain: EWGYASHNGPDHWHELFPNAKGENQSPIELHTKDIRHDPSLQPWSVSYDGGSAKTILNNGKTLGVVFDDTYDRSMLRGGPLPGPYRLREFHLHWGSSDDHGSEHTVDGVKYAAELHLLHWNPKYNTFKEALKQRDGLAVIGIFLKIGHENGEFQIFLDALDKIKTKGKEAPFTKFDPSSLFPASRDYWTYQGSMTIPPLMEAVVWLLLKEPMTVSSDQMAKLRSLLSSAENEPPVPLVSNWRPPQPINNRVVRASFK
Take B2: in experiment [2], the Kd is 488 nM; the koff (in general, the first-order rate constant of dissociation) is 0.0111 s⁻¹; the kon (in general, the rate constant with which the complex forms) was 23300 M⁻¹ s⁻¹. For the same molecule, in experiment [1], the Kd is 20 nM, the koff worked out at 0.000473 s⁻¹ and the kon is 23700 M⁻¹ s⁻¹.
